Data on 1 molecule can be found in US10246503B2, “Method of improving the pharmacokinetic profile of a therapeutic polypeptide and the use thereof” (BEIJING ANXINHUAIDE BIOTECH. CO., LTD, priority 2012, dated 2019).

Data set [1] in a line: pharmacokinetics in cynomolgus monkeys, sandwich ELISA. Format: in vivo. Conditions: subcutaneous, 5 nmol/kg. The method, then:
The GLP-1 concentrations within the samples were examined by use of the sandwich ELISA method. The rabbit polyclonal antibody against human Fibronectin at the concentration of 3 ug/ml (Ab299, Abcam company) was coated on ELISA plate for 1 hour at room temperature. Then the plate was washed by PBST buffer three times and the wells were blocked by PBS with 10% FBS for 1 hour at room temperature. The plate was washed three times before the serum samples containing GLP-1 fusion proteins were added. The serum samples could be diluted to 20-10000 folds before use. The ELISA plate was incubated with the serum samples at room temperature for 1 hour and then washed by PBST buffer five times. Then mouse monoclonal against human GLP-1 peptide antibody (sc57510, Santa Cruz Biotechnology) at the concentration of 1 ug/ml in PBST buffer was added to the wells. The plate was washed extensively after incubation of 1 hour at room temperature. The secondary antibody, […] HRP conjugated antibody (Beijing ZSGB-Bio company, ZB 5301), was added into the wells and the color was developed using TMB (3,3′,5,5′-tetramethylbenzidine, BD Biosciences, Cat 555214). The plate reader (Bio-Rad microplate reader Model 680) was utilized to obtain the OD450 readings. This method has been calibrated using purified proteins first.
To further investigate the pharmacokinetics profiles for the GLP-1 containing fusion proteins generated using the method of the invention, the fusion protein GLP1(A8G/G22E/R36G)-Fn8-p246-COL18NC1 was administrated into the cynomolgus monkeys by subcutaneous injection. The fusion protein was administered on three cynomolgus monkeys at the dose of 5 nmol/kg. Blood samples were taken at various time points after injections such as 0-min, 2-hour, 4-hour, 6-hour, 8-hour, 24-hour, 48-hour, and daily until the 15th day. The serum samples were centrifuged and kept at −80° C. freezer. The concentrations of the fusion protein within the serum samples were examined by using the sandwich ELISA method described above. The pharmacokinetics profile of the fusion protein GLP1(A8G/G22E/R36G)-Fn8-p246-COL18NC1 in cynomolgus monkeys was shown in FIG. 8. The pharmacokinetics parameters were obtained by using the WinNonlin software (Table 5).
For orientation: An ELISA detects its analyte on a solid surface through an enzyme-linked reagent.

A short description of data set [2]: analytical gel filtration (Superdex200), apparent molecular weight. Type of data set: physicochemical. The text has this: In the fusion protein of GLP-1(A8G/G22E)-Fn8-COL18NC1 described in example 4, the flexible unstructured linker between Fn8 and COL18NC1 contains six residues (GGGSGG; SEQ ID NO:89). To generate the flexible un-structured linkers with different lengths, we have synthesized the genes GLP-1(A8G/G22E/R36S)-Fn8-COL18NC1-20, GLP-1(A8G/G22E/R36S)-Fn8-COL18NC1-30, GLP-1(A8G/G22E/R36S)-Fn8-COL18NC1-54 and GLP-1(A8G/G22E/R36S)-Fn8-COL18NC1-60. In these genes, the length of the flexible unstructured polypeptide linker between Fn8 and COL18NC1 contained 20, 30, 54 and 60 residues, respectively. The protein sequences of GLP-1(A8G/G22E/R36S)-Fn8-COL18NC1-20, GLP-1(A8G/G22E/R36S)-Fn8-COL18NC1-30, GLP-1(A8G/G22E/R36S)-Fn8-COL18NC1-54 and GLP-1(A8G/G22E/R36S)-Fn8-COL18NC1-60 are listed as SEQ ID NO:8-11. The synthetic genes of GLP-1(A8G/G22E/R36S)-Fn8-COL18NC1-20, GLP-1(A8G/G22E/R36S)-Fn8-COL18NC1-30, GLP-1(A8G/G22E/R36S)-Fn8-COL18NC1-54 and GLP-1(A8G/G22E/R36S)-Fn8-COL18NC1-60 were grafted to the pET29b by NdeI and XhoI for protein expressions. The expression and purification of these fusion proteins were carried out using similar protocols described in example 3. To estimate the hydrodynamic radius and/or the Rg of the fusion proteins, the purified proteins were loaded on an analytical gel filtration column Superdex200 (GE Healthcare).
Moreover, the flexible unstructured linker between the therapeutic polypeptide and the scaffold protein may adjust the hydrodynamic radius and/or the Rg of the fusion molecule in a tunable manner.
The apparent molecular weights of the fusion proteins were estimated by use of an analytical gel filtration column Superdex-200 (GE Healthcare) mounted on the AKTA FPLC system (GE Healthcare). The purified fusion proteins GLP-1-Fn8, GLP-1-Fn8-COL18NC1, GLP-1(A8G/G22E/R36G)-Fn8-p246-COL18NC1 were loaded on the Superdex200 column. GLP-1-Fn8 is a fusion protein of GLP-1 and Fn8 and contains the first 144 amino acid residues of the fusion protein GLP-1-Fn8-COL18NC1 (SEQ ID NO:2). […] The genuine molecular weights for the fusion proteins GLP-1-Fn8 monomer, GLP-1-Fn8-COL18NC1 trimer, and GLP-1(A8G/G22E/R36G)-Fn8-p246-COL18NC1 trimer were ˜15 Kd, 65 Kd and 123Kd, respectively.

In data set [3] the test system is cynomolgus monkeys. The data set can be described thus: specific antibody against the fusion protein in monkey serum, ELISA. Format: in vivo. Conditions: serum of three cynomolgus monkeys one month after dosing. The text has this:
The serum samples of the cynomolgus monkeys receiving the fusion protein GLP1(A8G/G22E/R36G)-Fn8-p246-COL18NC1 were withdrawn one month after dosing to examine whether specific antibody against GLP1(A8G/G22E/R36G)-Fn8-p246-COL18NC1 has been generated.

B1: GLP1(A8G/G22E/R36G)-Fn8-p246-COL18NC1: GLP-1 mutant, Fn8, pCloud p246, COL18NC1 fusion; SEQ ID NO: 16 (protein)
chain: HGEGTFTSDVSSYLEEQAAKEFIAWLVKGGGSGGGSGGGSGGGSGGGSGSGGAVPPPTDLRFTNIGPDTMRVTWAPPPSIDLTNFLVRYSPVKNEEDVAELSISPSDNAVVLTNLLPGTEYVVSVSSVYEQHESTPLRGRQKTGGGGSGGGSGSGSESGSGGGSTSSGTGSETESPGSGSESGSGPSSAGSGSGSESGSGSGSSGPGSTGGSGSESGSGPGSSGTGGTATGSGSESGSGPGSSGPGSTGSGSGSESGSGSGSSGTGSTGGSGSESGSGPGSPRPGSTGTGSGSESGSGPGSSERGSAGGSGSESGSGTSESSASGSTGGSGSESGSGSESGSGSGSESGSGPESPGSGGSGSESGSGTSGSTGSGSESGSGGGSGGGSGGGASSGVRLWATRQAMLGQVHEVPEGWLIFVAEQEELYVRVQNGFRKVQLEARTPLPRG
In data set [1] (Monkey), B1 returned an AUCall of 1267.8 µg·h/mL, a CL/F of 11.5 mL/day/kg, a Cmax of 8210 ng/mL and a T½ of 67.3 h. In data set [1] (Monkey), this molecule returned a Vss of 0.0516 L/kg. In addition, the half life in data set [1] (cynomolgus monkeys) is ~67 h. Besides, the apparent molecular weight in data set [2] is ~550 Kd. In addition, the “specific antibody against the fusion protein” value in data set [3] is “no specific antibody was induced”.

For orientation: CL/F means the apparent clearance, not corrected for the fraction that reaches the circulation. For orientation: Cmax means the highest concentration seen after dosing.
